According to patent publication US20170369592A1, “NOVEL ANTI-FIBROBLAST ACTIVATION PROTEIN (FAP) ANTIBODIES AND USES DERIVED THEREOF” (Mabimmune Diagnostics AG, priority 2015, published 2017):

Assays:
[1] = tested on: human invasive ductal carcinoma and invasive lobular carcinoma sections; assay: Confocal immunofluorescence on human carcinoma cryosections; conditions: Cyanine 3 labelled antibody
Procedure: NI-206.82C2 was labelled with Cyanine 3 for fluorescent imaging (Cy3 conjugation kit: Innova Biosciences, 340-0030) and antibody labelling was validated using a spectophotometer. Cryosections from human invasive ductal carcinoma tissues (FIG. 9, A) and invasive lobular carcinoma (FIG. 9, B) were fixed for 5 minutes in ice cold acetone and allowed to dry for 10 minutes before washing in PBS. The sections were then incubated for 1 hr at room temperature in 5% BSA in PBS. The tissue sections were then incubated with Cyanine 3 prelabelled antibodies overnight at 4° C., and then washed three times in PBS before incubation with DAPI at 0.5 μg/mL. Sections were then washed three additional times in PBS and mounted in Lisbeth's mounting medium before imaging on a SP8 confocal microscope (Leica Microsystems).

[2] = target: T1, rhFAP (Homo sapiens, UniProt Q12884); assay: Mechanism of inhibition of rhuFAP-mediated PEP (Z-Gly-Pro-AMC) cleavage; type: biochemical; conditions: 0, 10, 100, 1000 nM antibody, 20-100 μM Z-Gly-Pro-AMC, Lineweaver-Burk plot
T1 construct: purchased Sino Biologicals 10464-H07H
T1 sequence (Q12884 26-760 limits assumed): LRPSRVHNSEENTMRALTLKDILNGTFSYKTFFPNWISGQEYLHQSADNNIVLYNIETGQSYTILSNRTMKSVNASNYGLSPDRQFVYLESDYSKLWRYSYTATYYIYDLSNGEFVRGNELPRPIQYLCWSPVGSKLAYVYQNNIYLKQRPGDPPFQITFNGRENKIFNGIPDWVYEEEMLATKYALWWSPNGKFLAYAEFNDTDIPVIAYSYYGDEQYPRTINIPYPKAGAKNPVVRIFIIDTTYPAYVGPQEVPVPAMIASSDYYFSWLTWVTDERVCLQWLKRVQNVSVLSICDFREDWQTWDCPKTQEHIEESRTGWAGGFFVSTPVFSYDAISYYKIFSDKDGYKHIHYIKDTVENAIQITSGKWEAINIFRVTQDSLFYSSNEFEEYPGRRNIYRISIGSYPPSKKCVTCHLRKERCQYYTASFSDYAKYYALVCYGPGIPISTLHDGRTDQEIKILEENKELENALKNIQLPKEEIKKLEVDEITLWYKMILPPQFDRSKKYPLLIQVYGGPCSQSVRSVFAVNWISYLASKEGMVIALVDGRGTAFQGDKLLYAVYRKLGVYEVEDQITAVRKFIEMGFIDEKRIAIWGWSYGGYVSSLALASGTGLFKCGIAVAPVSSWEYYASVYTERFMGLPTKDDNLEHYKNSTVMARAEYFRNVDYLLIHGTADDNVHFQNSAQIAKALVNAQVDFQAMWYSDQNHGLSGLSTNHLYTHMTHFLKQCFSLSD
Procedure: A black flat bottom standard 96-well ELISA plate was blocked for 1 hr at 37° C. using sterile blocking buffer: 5% bovine serum albumin (BSA) in phosphate buffered saline (PBS). 10 μL of recombinant human FAP solution: 0.4 nM recombinant human FAP (Sino Biologicals, 10464-H07H), in 225 mM Sodium phosphate buffer, pH 7.4) was added to each well. Then, 80 μL of NI-206.82C2 at the indicated concentrations in PBS were added to the wells incubated for 1 hr at 37° C. Then, 10 μL of fluorogenic substrate solution (Z-Gly-Pro-AMC in 40% methanol and 60% 25 […]) was added to each well. The fluorescence intensity was measured at 360 nm excitation and 460 nm emission every 3 min over a total reading time of 2 hr.

[3] = tested on: murine CT-26 colorectal cancer tissue sections; assay: Immunofluorescence on murine colorectal cancer tissue sections; set-up: species or system mouse; conditions: Cy5 labelled antibody
Procedure: NI-206.82C2 was prelabelled with Cyanine 5 antibody labeling kit (Innova Biosciences, 342-0010), and sufficient antibody labelling was validated with a photospectrometer. Cryosections of mouse livers containing syngeneic CT-26 liver metastasis were allowed to dry for 30 min at room temperature the fixed for 10 min in 4% formalin in PBS. Slides were then washed 3 times for 5 minutes in PBS and blocked for 1 hr at room temperature with 5% bovine serum albumin in PBS. The slides were then incubated overnight at 4° C. with staining solution containing DAPI at 0.5 μg/mL, and Alexa 547 phalloidin (Invitrogen) according to the manufacturer's instructions, and either Cy5 labelled NI-206.82C2 or a Cy5 labelled isotype-matched control antibody 3A1 at a concentration of 10 µg/mL, in blocking solution with 0.5% Triton X100. Slides were then washed 3 times in PBS, mounted in Lisbeth's mounting medium, and imaged with an SP8 confocal microscope (Leica Microsystems).

[4] = target: T1, rhFAP; assay: Inhibition assay on SB9 oligopeptidase family (DQ-gelatin); type: biochemical; conditions: antibody up to 1000 nM, enzyme 0.2 nM
Procedure: To determine the inhibitory ability of the antibody a black 96 well plate was blocked for 1 h with blocking buffer. NI-206.82C2 was pipetted at concentrations of 1000, 50, 10, 3.03, 1.01, 0.031, 0.001, and 0 nM in PBS into the according wells. The enzymes were added at a concentration of 0.2 nM. Finally, fluorgenic substrates were then added to the well at a concentration equal to the Michaelis constant (Km) and the velocity of the substrate cleavage was quantified by fluorescence at 360 nm excitation and 460 nm emission. H-Gly-Pro-AMC (AAT Bioquest, 13450) was used for DPP4, DPP9, and DPP8. Z-Gly-Pro-AMC (BaChem, I1145) was used to evaluate the activity of POP/PREP. FAP activity was assessed using DQ-gelatin (Life Technologies, D12054) and cleavage quantified at 495 nm excitation and 515 nm emission.

B1: NI-206.82C2: recombinant human memory B cell-derived monoclonal anti-FAP IgG1 antibody, variable regions in FIG. 1A, FAP inhibitory (antibody, V domains shown)
VH: QVQLQQSGPGLVKPSQTLSLTCAISGDSVSSNSVTWNWIRQSPSRGLEWLGRTYYRSKWYNDYAVSVKGRITINPDTSKNQFYLQLKSVTPEDAAVYYCARDSSILYGDYWGQGTLVTVSS
VL: QAVLTQPSSLSASPGASASLTCTLPSGINVGTYRIFWFQQKPGSPPQYLLSYKSDSDNHQGSGVPSRFSGSKDASANAGILLISGLQSEDEADYYCMIWHSSAWVFGGGTKLTVL
- binding to human invasive ductal carcinoma and invasive lobular carcinoma sections [1]: specifically binds
- mechanism of inhibition of FAP-mediated PEP cleavage [2]: non-competitive inhibitor
- staining of CT-26 syngeneic liver metastasis sections [3]: found around the perimeter
- inhibition of rhFAP [4]: selectively inhibits
